Experiment: protease stability score; higher = more stable; yeast display proteolysis, trypsin and chymotrypsin;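 also: log10 excess protease needed over predicted unfolded state with 0 meaning unfolded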

## DEDAEKHWRTFLRNQKTGDEQKMRDQVDPNARASIGDQEVEGREKIVRELVEEFRHMHVQINWKSLTAHNGKVHAHADAQVDHNGRPQTYKITASAQFSNGKIKEFKMQRRP
  protease stability score: -0.013

## DTDAVRRALKFIDAMQDGDPDKARELMDPNARVNIGDKEYHGMTSFVKDLKRLRDEIRVQYNIRDYNAQGEKIHVTVDVVFEHNGRPVDERFNVTIDIQGDKIKQVTAHRTK
  protease stability score: 1.61

## DESAIQHWRKMLEAVETGDEKKIQKQADPNAKFRVGDKVIHGREKYAKQKVQEARQIRVEIDIKDWENRPGRVNLDADARYEINGQPVTFRLEVEMRMHNGHFVSVDVQFDEEKWEKLHK
  protease stability score: 0.037

## DEDRRAREWVETMQDIVENNNERDMKKLFDPNARVSVGDREYHGEDEIAHVLQREMENADNIHIEVKSIIVHGDKVTVDLTVSVQVNGKTETDRVRMVLKDKDGRIQVVSVQQT
  protease stability score: 0.597

## EDELRDQFKRFMNAWERGDPDKLRSLVDPNAEVVVGDKVYHGMTHAADEIVRHMKESRYTIKIESINVNGDNIEVTARVTADHNGKPQDASFHASARLENGHVTSMEVQIRE
  protease stability score: 0.916

## DHEEMEKIAEEIIDILRTNDPDQMERLADENVRVRIGDKEVHGRESVSHAAQQLHDRVDHFDLKSWRRNGDKFQFEFVEHFNGQSRNVQVEMRFENGKIRHIVYTSR
  protease stability score: 0.226

## DEKAKHMVERFFTALTTGDEQKLRDNVDPNAKFHYGDKRISGMEDNARTLVEEQKEIRFQYDRMHLDAKGDTIDVKLKYIADVNGKPIDVHVDVKFQFQNGRVQSISERIDPRVEKEMHS
  protease stability score: 0.162

## DHEDRAKDMLRRYEEALKSGNPDEARKLADEDVNFNIGDKRYRGRDDLATLVKQIRDSADHISITLETFTVQGNTITMDVSVVVDVNGKHISRRYNIIAQVDNGTLKLKSVQEH
  protease stability score: -0.015

## DHKDQSKMVKDLNRVMQHGDSKQMRSMVDENAEVQYGDNQVHGRDQIREMEKRIRRRVDKVKFDSVDVEGNKVRIQYVVNVNGQNIEQVLHVTFKNGKIKNQEYRVRDPRLEKQFKS
  protease stability score: 0.237

## EEEHAKHLNEVMERGDWERLAELADKDVKIRVGDKEYRGRELLERWNRKLYKKVDEVHIDSVHVRNGRITVNMEVNVNGDKVRAQFRIRIHNGKIKHINIQATSEENEERWQEMLD
  protease stability score: 1.5

## DEEDDKRIAEDVVRQLQTGNPDQARDQADPNAEFRVGDRTIHGRDSFRRLMKETRDEVDKVQVQDFEMHNGHFSVNLVFNINGKEKLVHMSAQFKNGTIKHLSVQDQ
  protease stability score: -0.36

## DDEEARHRLSRISKMLEENDPQRFSNQADEDVRVDIGDKEIHGKEEVARQLTEWRKQVDHVRVTSVEVQGDHASVQFRADVNGRHRVLTLYMKWTNGRVKEMHIKEG
  protease stability score: 0.857

## DEKARKILKKMMHALEKGDEDKVRHLLDPNVKVRIGDKDITGREEVARNIFKTLQSMRVKIDRFHVEAKGDKVRAHQTAKAQHNGQPRRYQATVTARIHNGHFQRIDIQVDK
  protease stability score: 0.944

## DERNNEFAKHFIEVLNQGDWKRLNEMLDPNVKVEIGDTTIHGRENFSRNVKQDLDHLRQEFHITSMDASGNKVEVRADVINRDNGKPREFKMKMEIRFHNGRVKEIKLDHDG
  protease stability score: 1.53

## DEKVLKALHDVFRAQEHGDERRAMRNLDPNVKIDVGDEQYHGRESWARRIVQERRDMKVEYHKIDFDDRGDKAKITARYEFTENGDPRHVTIDMEAKATNGKVTTMEQRDDG
  protease stability score: -0.103

## DEEARRVWHKLMDALRTGDPEKFRNNADPNARIQYGNETIHGMRDNARTVMTMLHRLDVEWEIKDVKVRPNRIDVIYVLRVHIDGKPYQVHIQADATFHNGKLQSIRKRVDEDEQRKLDR
  protease stability score: 0.379

## DSDQSKREMDKFLEMVSTGDPDEVNRLLDKDAHAHVGDQTYHGREEISHMWKELREKIDHLEVHDYKVNGNKLEVDMHATINGQNVVFTVVAVLRNGHFESVEVQYRSEEEEEKVKR
  protease stability score: 0.452

## DETIHDQAQRFFRDVQTGDEENIHKYFDPNARFVVGDKDLHGMSEVAEDLARKWNEWRVDVRDYRIKVHNGRIEVHIDARFDHDGQPEDRSEVVVYTMKNGQVQMVEFHKQG
  protease stability score: 0.464

## DDTARQVYEDAADALRTGDEDEFRKQVDKDVRLTYGDKFIHGREEAARQLRDRQSTMRDEWDINEVQVRNGTINVDANKRNHENGQPQDVNLRVEVHAHNGKLTELRYTVQQ
  protease stability score: -0.177

## DEDARRRVHEFFEAIENNDREKLKELADPNVQANYGDKQVRGREQLAEWVDKLHKELRVHFRLKSLDNRGDKIEIRMRVILDINGRPQTQDVTMEMRFHNGRIKHVQVHVDERQLKQKKK
  protease stability score: 0.942

## DEEIVKLLKRLIKAEKNGNPDEIRKNLDPNVRYVVGERTITGREEFVRDQQRRDDQMRVEFQSVQLRQKGDKAVIHQQAVYRHNGRPKTNHQHISIQAKNGKVKDQKVEVKE
  protease stability score: 0.069

## REEDVEKVIRTLLQAVHEGNPDKIRKYLKPDVEVQYADQKFKGPDEIMKLMRRMVRKGYRVQIKEQHVEGDTATTRADYQMGDKQVTVEVTAEAENGKLKHAEIKMSPQFEEIVKKG
  protease stability score: 1.49

## DHDLQKTWKDQAAEALQTGDPREFEKMVDENVNVIYGDKTYHGRKQASNLAQRLQKQIDHIRLHSVSIRGDEVNVDLTVNVNGTEMRYHMTARVHNGKVKELKFDPDFVRKAQK
  protease stability score: 0.174

## DKEVIKQLKHFMKALEKGDPDKLVELADPEAKYEYGDRTYKGMSNVAEELVNTRREIRFQLTLQSYEVQGEKARVKAVYVKDRNGKPDNQVVVIEMEAHNGKIKSMQERSDQ
  protease stability score: 0.501

## DEEDVRRVAKQAKEYVQKGNKEKLMDLGKEGVDYRVLDHKAKGPEAIKTMQDYLERKGARVEVKKLEVKGDQVRTEVHYKQGDTTATAEVHATVKGGKIDKVKVDLSDRAKEILKHG
  protease stability score: -0.141

— the NTF2 design screens of Basanta et al. (2020)
